Assays:
[1] = biological target: CD4-Sho1-SH3-I49A (MYTH bait) (S. cerevisiae); test: two-hybrid
[2] = biological target: CD4-Sho1-SH3-ΔAY (MYTH bait) (S. cerevisiae) (UniProt P40073); test: two-hybrid
Chain of UniProt P40073 (P40073 298-367, stated change not applied): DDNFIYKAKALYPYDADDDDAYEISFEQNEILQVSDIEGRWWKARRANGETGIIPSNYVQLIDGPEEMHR

fold change relative to wildtype Sho1p SH3 (β-galactosidase, Miller units) [1] | fold change relative to wildtype Sho1p SH3 (β-galactosidase, Miller units) [2] | Molecule
0.2 fold | 0.3 fold | Fps1-N (N-terminal soluble domain of Fps1p, NubG MYTH prey) (from UniProt P23900 1-255) (domain or fragment)
 | 0.5 fold | NubG-Pbs2 (full-length Pbs2p MYTH prey) (natural protein) MEDKFANLSLHEKTGKSSIQLNEQTGSDNGSAVKRTSSTSSHYNNINADLHARVKAFQEQRALKRSASVGSNQSEQDKGSSQSPKHIQQIVNKPLPPLPVAGSSKVSQRMSSQVVQASSKSTLKNVLDNQETQNITDVNINIDTTKITATTIGVNTGLPATDITPSVSNTASATHKAQLLNPNRRAPRRPLSTQHPTRPNVAPHKAPAIINTPKQSLSARRGLKLPPGGMSLKMPTKTAQQPQQFAPSPSNKKHIETLSNSKVVEGKRSNPGSLINGVQSTSTSSSTEGPHDTVGTTPRTGNSNNSSNSGSSGGGGLFANFSKYVDIKSGSLNFAGKLSLSSKGIDFSNGSSSRITLDELEFLDELGHGNYGNVSKVLHKPTNVIMATKEVRLELDEAKFRQILMELEVLHKCNSPYIVDFYGAFFIEGAVYMCMEYMDGGSLDKIYDESSEIGGIDEPQLAFIANAVIHGLKELKEQHNIIHRDVKPTNILCSANQGTVKLCDFGVSGNLVASLAKTNIGCQSYMAPERIKSLNPDRATYTVQSDIWSLGLSILEMALGRYPYPPETYDNIFSQLSAIVDGPPPRLPSDKFSSDAQDFVSLCLQKIPERRPTYAALTEHPWLVKYRNQDVHMSEYITERLERRNKILRERGENGLSKNVPALHMGGL

Source: paper PMC5331858
